The source of these data is paper PMC5639936 (Nature plants, 2017).

Data set [1] deals with T1, SHR-SCR complex (SHR 59-531 with SCR 275-653) (Arabidopsis thaliana, UniProt Q9SZF7 59-531; Q9M384 275-653).
T1 sequence (looked up) 1: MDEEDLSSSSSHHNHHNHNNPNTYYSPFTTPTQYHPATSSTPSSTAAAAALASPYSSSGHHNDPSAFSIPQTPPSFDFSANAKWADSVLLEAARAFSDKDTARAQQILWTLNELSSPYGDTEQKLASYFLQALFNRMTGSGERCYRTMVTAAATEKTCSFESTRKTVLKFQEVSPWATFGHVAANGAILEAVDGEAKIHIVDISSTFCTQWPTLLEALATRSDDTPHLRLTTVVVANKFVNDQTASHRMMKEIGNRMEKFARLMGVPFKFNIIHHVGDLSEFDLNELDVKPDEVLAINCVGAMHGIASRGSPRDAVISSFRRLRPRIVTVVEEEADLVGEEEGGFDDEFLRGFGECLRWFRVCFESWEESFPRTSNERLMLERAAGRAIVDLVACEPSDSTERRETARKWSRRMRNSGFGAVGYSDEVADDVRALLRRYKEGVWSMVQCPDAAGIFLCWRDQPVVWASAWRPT
T1 sequence (looked up) 2: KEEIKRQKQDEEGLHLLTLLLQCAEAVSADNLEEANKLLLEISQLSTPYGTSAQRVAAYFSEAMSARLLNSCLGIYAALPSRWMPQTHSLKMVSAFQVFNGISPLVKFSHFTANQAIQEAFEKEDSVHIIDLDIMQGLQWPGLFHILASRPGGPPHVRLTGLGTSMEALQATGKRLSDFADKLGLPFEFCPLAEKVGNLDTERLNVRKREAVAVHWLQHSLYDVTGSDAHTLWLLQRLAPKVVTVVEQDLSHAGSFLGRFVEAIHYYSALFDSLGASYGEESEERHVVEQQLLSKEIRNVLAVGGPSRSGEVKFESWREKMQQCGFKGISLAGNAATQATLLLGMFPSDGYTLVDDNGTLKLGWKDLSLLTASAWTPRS
Description: ITC. Background: Isothermal titration calorimetry measures the heat released or taken up as one component is titrated into another.

The data set “AUC” deals with the molecule itself. Briefly: AUC.

B1: MGP/IDD3 ZF3-ZF4 (residues 143-221) (domain or fragment, Arabidopsis thaliana, UniProt Q9ZWA6 143-221, looked up)
chain: EKKWKCEKCAKRYAVQSDWKAHSKTCGTREYRCDCGTIFSRRDSFITHRAFCDALAEETARLNAASHLKSFAATAGSNL
One may read the Kd as the equilibrium constant for the complex coming apart. A high value points to lower affinity. In general, stoichiometry N refers to a count of units in the complex or per binding partner. Take B1: in data set [1], the affinity, expressed as Kd, was 35.5 ± 11.2 nM; the dH was found to be 2.59 ± 0.02 kcal/mol; the “stoichiometry N” value worked out at 0.81 ± 0.003.

B2: AtSCL3 (natural protein, Arabidopsis, UniProt Q9LPR8 1-482, looked up)
chain: MVAMFQEDNGTSSVASSPLQVFSTMSLNRPTLLASSSPFHCLKDLKPEERGLYLIHLLLTCANHVASGSLQNANAALEQLSHLASPDGDTMQRIAAYFTEALANRILKSWPGLYKALNATQTRTNNVSEEIHVRRLFFEMFPILKVSYLLTNRAILEAMEGEKMVHVIDLDASEPAQWLALLQAFNSRPEGPPHLRITGVHHQKEVLEQMAHRLIEEAEKLDIPFQFNPVVSRLDCLNVEQLRVKTGEALAVSSVLQLHTFLASDDDLMRKNCALRFQNNPSGVDLQRVLMMSHGSAAEARENDMSNNNGYSPSGDSASSLPLPSSGRTDSFLNAIWGLSPKVMVVTEQDSDHNGSTLMERLLESLYTYAALFDCLETKVPRTSQDRIKVEKMLFGEEIKNIISCEGFERRERHEKLEKWSQRIDLAGFGNVPLSYYAMLQARRLLQGCGFDGYRIKEESGCAVICWQDRPLYSVSAWRCRK
For the molecule B2, the “stoichiometry N” value in the data set “AUC” worked out at 2.

B3: JKD/IDD10 ZF3-ZF4 (residues 155-224) (domain or fragment, Arabidopsis thaliana, UniProt Q700D2 155-224, looked up)
chain: GEKKWKCEKCSKKYAVQSDWKAHAKTCGTREYKCDCGTLFSRKDSFITHRAFCDALTEEGARMSSLSNNN
As to B3, in data set [1], binding was put at a Kd of 124 ± 81.7 nM, the dH is -1.29 ± 0.03 kcal/mol and the “stoichiometry N” value came to 0.6 ± 0.01.
